From patent US20240209100A1 (DIAGONAL THERAPEUTICS, published 2024)

T1: IL-18 receptor (IL-18Rα/IL-18Rβ) overexpressed on HEK-Blue IL-18 cells (Homo sapiens (Human), UniProt Q13478 19-541; O95256 20-599)
T1 sequence 1: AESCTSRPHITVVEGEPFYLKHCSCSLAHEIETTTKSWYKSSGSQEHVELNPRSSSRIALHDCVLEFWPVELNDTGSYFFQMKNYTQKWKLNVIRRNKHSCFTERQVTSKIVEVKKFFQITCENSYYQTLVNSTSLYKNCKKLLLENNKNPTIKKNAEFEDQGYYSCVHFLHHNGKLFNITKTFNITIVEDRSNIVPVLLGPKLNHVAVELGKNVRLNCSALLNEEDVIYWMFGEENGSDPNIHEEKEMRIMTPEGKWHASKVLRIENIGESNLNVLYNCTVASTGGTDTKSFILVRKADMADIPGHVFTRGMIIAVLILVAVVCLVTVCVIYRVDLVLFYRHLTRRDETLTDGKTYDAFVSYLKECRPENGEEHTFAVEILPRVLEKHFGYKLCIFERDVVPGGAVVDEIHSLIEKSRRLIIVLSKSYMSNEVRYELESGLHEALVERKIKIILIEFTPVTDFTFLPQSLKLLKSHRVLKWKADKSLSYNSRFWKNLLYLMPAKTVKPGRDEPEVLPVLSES
T1 sequence 2: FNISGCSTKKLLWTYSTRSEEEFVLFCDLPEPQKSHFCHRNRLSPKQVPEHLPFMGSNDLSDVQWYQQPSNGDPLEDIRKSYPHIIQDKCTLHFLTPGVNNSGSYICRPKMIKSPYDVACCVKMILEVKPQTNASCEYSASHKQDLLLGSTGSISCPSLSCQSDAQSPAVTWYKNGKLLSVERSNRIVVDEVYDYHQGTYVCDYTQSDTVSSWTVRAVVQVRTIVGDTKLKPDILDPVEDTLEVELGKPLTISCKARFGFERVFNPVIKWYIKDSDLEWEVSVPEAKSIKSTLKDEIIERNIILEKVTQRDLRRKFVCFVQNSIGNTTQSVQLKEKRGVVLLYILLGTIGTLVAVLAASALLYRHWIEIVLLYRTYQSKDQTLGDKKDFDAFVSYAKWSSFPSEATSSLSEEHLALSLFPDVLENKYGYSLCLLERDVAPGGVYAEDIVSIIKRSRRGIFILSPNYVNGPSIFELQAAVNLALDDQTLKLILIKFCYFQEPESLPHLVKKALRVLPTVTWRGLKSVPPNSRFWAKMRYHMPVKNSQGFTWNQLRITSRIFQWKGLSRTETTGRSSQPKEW

B1: DGL167 (bispecific antibody)
heavy 1: QVQLVESGGGLVQAGGSLRLSCAASGRTFSKHAMGWFRQAPGKEREFVAAIDWSGGSTYYADSVKGRFTISRDNAKNTVYLQMDSLKPEDTAVYYCAADSYTDYAQLWLPELESEYDYWGQGTQVTVSSGGGSQVQLQESGGGLVQAGGSLKLSCQASGLTFKRNTMGWFRQAPGKEREFVAHFLWTGGETDYADAVKGRFTISRDNAKNTVYLQMNSLKPEDTAVYFCAANYAGYRIDGYQYWGQGTQVTVSSDKTHTCPPCPAPEAAGGPSVFLFPPKPKDTLMISRTPEVTCVVVDVSHEDPEVKFNWYVDGVEVHNAKTKPREEQYNSTYRVVSVLTVLHQDWLNGKEYKCKVSNKALPAPIEKTISKAKGQPREPQVCTLPPSRDELTKNQVSLSCAVKGFYPSDIAVEWESNGQPENNYKTTPPVLDSDGSFFLVSKLTVDKSRWQQGNVFSCSVMHEALHNHYTQKSLSLSPG
heavy 2: not shown
B2: DGL168 (bispecific antibody)
heavy 1: QVQLVESGGGLVQAGGSLRLSCAASGRTFSSYNMGWFRQAPGKERESVAAISWSGGSSYYADSVKGRFTISRDNAKPTVYLQMNSLKPEDTAVYYCAADRDSEEWDGSSWFFKSDYWGQGTQVTVSSGGGSQVQLVESGGGLVQTGGPLRLSCAASGGTFSRYTMGWFRQAPGKEREYVAAISWRGSSIYYADAVKGRFTISRDSAKSTVYLQMNNLNSDDTAVYYCAADRTDLPRNAGEYGYWGQGTQVTVSSDKTHTCPPCPAPEAAGGPSVFLFPPKPKDTLMISRTPEVTCVVVDVSHEDPEVKFNWYVDGVEVHNAKTKPREEQYNSTYRVVSVLTVLHQDWLNGKEYKCKVSNKALPAPIEKTISKAKGQPREPQVCTLPPSRDELTKNQVSLSCAVKGFYPSDIAVEWESNGQPENNYKTTPPVLDSDGSFFLVSKLTVDKSRWQQGNVFSCSVMHEALHNHYTQKSLSLSPG
heavy 2: not shown
B3: DGL169 (bispecific antibody)
heavy 1: QVQLVESGGGLVQAGGSLRLSCAASGRTFSSYTMGWFRQAPGKEREFVAAISWSAGRTYYADSVKGRFTISRDNAKNTVYLQMNSLKPEDTAVYFCAAEEAPDWAPIDCSGYGCLSLYDYWGQGTQVTVSSGGGSQVQLVESGGGLVQAGGSLRLSCAASQTGFNMNRMGWYRQAPGKQRELVATITGGGSTTYADSVKGRFDISRGNVENNLYLQMNSLKPEDTAVYYCNALLFGRDYWGQGTQVTVSSDKTHTCPPCPAPEAAGGPSVFLFPPKPKDTLMISRTPEVTCVVVDVSHEDPEVKFNWYVDGVEVHNAKTKPREEQYNSTYRVVSVLTVLHQDWLNGKEYKCKVSNKALPAPIEKTISKAKGQPREPQVCTLPPSRDELTKNQVSLSCAVKGFYPSDIAVEWESNGQPENNYKTTPPVLDSDGSFFLVSKLTVDKSRWQQGNVFSCSVMHEALHNHYTQKSLSLSPG
heavy 2: not shown
B4: DGL170 (bispecific antibody)
heavy 1: QVQLVESGGGLVQAGGSLRLSCVASGTFFQIHVMGWYRQAPGKQRELVAFIINNGGTRYADSVKGRFTISRDYAKNTVYLQMNSLKPEDTAVYYCNTEGTYRGRYSTDNWGQGTQVTVSSDKGPSVFPLAPEPKSSQVQLVESGGGLVQAGGSLRLSCAASGRTFSKHAMGWFRQAPGKEREFVAAIDWSGGSTYYADSVKGRFTISRDNAKNTVYLQMDSLKPEDTAVYYCAADSYTDYAQLWLPELESEYDYWGQGTQVTVSSDKTHTCPPCPAPEAAGGPSVFLFPPKPKDTLMISRTPEVTCVVVDVSHEDPEVKFNWYVDGVEVHNAKTKPREEQYNSTYRVVSVLTVLHQDWLNGKEYKCKVSNKALPAPIEKTISKAKGQPREPQVCTLPPSRDELTKNQVSLSCAVKGFYPSDIAVEWESNGQPENNYKTTPPVLDSDGSFFLVSKLTVDKSRWQQGNVFSCSVMHEALHNHYTQKSLSLSPG
heavy 2: not shown
B5: DGL171 (bispecific antibody)
heavy 1: EVQLVESGGGLVQAGGSLRLSCAASGSISSRDTMGWYRQAPGKQREMVAVISSSGNTNYADSVLGRFTISRDNAKNTVDLQMNSLKPEDTAIYKCYAHRTYGVDYWGKGTLVTVSSDKGPSVFPLAPEPKSSQVQLVESGGGLVQAGGSLRLSCAASGRTFSSYTMGWFRQAPGKEREFVAAISWSAGRTYYADSVKGRFTISRDNAKNTVYLQMNSLKPEDTAVYFCAAEEAPDWAPIDCSGYGCLSLYDYWGQGTQVTVSSDKTHTCPPCPAPEAAGGPSVFLFPPKPKDTLMISRTPEVTCVVVDVSHEDPEVKFNWYVDGVEVHNAKTKPREEQYNSTYRVVSVLTVLHQDWLNGKEYKCKVSNKALPAPIEKTISKAKGQPREPQVCTLPPSRDELTKNQVSLSCAVKGFYPSDIAVEWESNGQPENNYKTTPPVLDSDGSFFLVSKLTVDKSRWQQGNVFSCSVMHEALHNHYTQKSLSLSPG
heavy 2: not shown
B6: DGL172 (bispecific antibody)
heavy 1: QLQLVESGGGLVQAGGSLRLSCAASRSITFSHNVMGWYRQAPGKQRELVASIGSGGSTNYVDSVKGRATISRDNAKKTVYLQMNSLKPEDTAVYYCGVVVGVYRGSLGQGTQVTVSSDKGPSVFPLAPEPKSSQVQLQESGGGLVQAGGSLRLSCQASGSIATINGMRWWRQAPGKERELVATINSGGSSNYADSVKGRFTISRDNASHTVSLQMNSLKPEDTAVYYCNLYVYSQFPPFSVDDYWGQGARVTVSSDKTHTCPPCPAPEAAGGPSVFLFPPKPKDTLMISRTPEVTCVVVDVSHEDPEVKFNWYVDGVEVHNAKTKPREEQYNSTYRVVSVLTVLHQDWLNGKEYKCKVSNKALPAPIEKTISKAKGQPREPQVCTLPPSRDELTKNQVSLSCAVKGFYPSDIAVEWESNGQPENNYKTTPPVLDSDGSFFLVSKLTVDKSRWQQGNVFSCSVMHEALHNHYTQKSLSLSPG
heavy 2: not shown
B7: DGL173 (bispecific antibody)
heavy 1: QVQLVESGGGLVQAGGSLRLSCVASGTFFQIHVMGWYRQAPGKQRELVAFIINNGGTRYADSVKGRFTISRDYAKNTVYLQMNSLKPEDTAVYYCNTEGTYRGRYSTDNWGQGTQVTVSSGGGSQVQLVESGGGLVQAGGSLRLSCAASGRTFSKHAMGWFRQAPGKEREFVAAIDWSGGSTYYADSVKGRFTISRDNAKNTVYLQMDSLKPEDTAVYYCAADSYTDYAQLWLPELESEYDYWGQGTQVTVSSDKTHTCPPCPAPEAAGGPSVFLFPPKPKDTLMISRTPEVTCVVVDVSHEDPEVKFNWYVDGVEVHNAKTKPREEQYNSTYRVVSVLTVLHQDWLNGKEYKCKVSNKALPAPIEKTISKAKGQPREPQVCTLPPSRDELTKNQVSLSCAVKGFYPSDIAVEWESNGQPENNYKTTPPVLDSDGSFFLVSKLTVDKSRWQQGNVFSCSVMHEALHNHYTQKSLSLSPG
heavy 2: not shown
B8: DGL174 (bispecific antibody)
heavy 1: EVQLVESGGGLVQAGGSLRLSCAASGSISSRDTMGWYRQAPGKQREMVAVISSSGNTNYADSVLGRFTISRDNAKNTVDLQMNSLKPEDTAIYKCYAHRTYGVDYWGKGTLVTVSSGGGSQVQLVESGGGLVQAGGSLRLSCAASGRTFSSYTMGWFRQAPGKEREFVAAISWSAGRTYYADSVKGRFTISRDNAKNTVYLQMNSLKPEDTAVYFCAAEEAPDWAPIDCSGYGCLSLYDYWGQGTQVTVSSDKTHTCPPCPAPEAAGGPSVFLFPPKPKDTLMISRTPEVTCVVVDVSHEDPEVKFNWYVDGVEVHNAKTKPREEQYNSTYRVVSVLTVLHQDWLNGKEYKCKVSNKALPAPIEKTISKAKGQPREPQVCTLPPSRDELTKNQVSLSCAVKGFYPSDIAVEWESNGQPENNYKTTPPVLDSDGSFFLVSKLTVDKSRWQQGNVFSCSVMHEALHNHYTQKSLSLSPG
heavy 2: not shown

Each binder was assayed against T1, IL-18 receptor (IL-18Rα/IL-18Rβ) … (assay: cell-based or functional assay).

Binder	HEK-Blue IL-18: Abs 405	HEK-Blue IL-18: Fold over Background
B1	0.66 Abs	5.5 fold
B2	0.62 Abs	5.1 fold
B3	0.22 Abs	1.8 fold
B4	0.23 Abs	1.9 fold
B5	0.53 Abs	4.3 fold
B6	1.02 Abs	8.5 fold
B7	0.59 Abs	4.9 fold
B8	1.14 Abs	9.5 fold
